Kd data for one protein are collected here from paper PMC10686051 (Nature structural & molecular biology, 2023).

The series concerns the molecule itself. Description: MST.

B1: MRE11 structured-domain (1–411 aa) (domain or fragment, UniProt P49959 1-411, looked up)
chain: MSTADALDDENTFKILVATDIHLGFMEKDAVRGNDTFVTLDEILRLAQENEVDFILLGGDLFHENKPSRKTLHTCLELLRKYCMGDRPVQFEILSDQSVNFGFSKFPWVNYQDGNLNISIPVFSIHGNHDDPTGADALCALDILSCAGFVNHFGRSMSVEKIDISPVLLQKGSTKIALYGLGSIPDERLYRMFVNKKVTMLRPKEDENSWFNLFVIHQNRSKHGSTNFIPEQFLDDFIDLVIWGHEHECKIAPTKNEQQLFYISQPGSSVVTSLSPGEAVKKHVGLLRIKGRKMNMHKIPLHTVRQFFMEDIVLANHPDIFNPDNPKVTQAIQSFCLEKIEEMLENAERERLGNSHQPEKPLVRLRVDYSGGFEPFSVLRFSQKFVDRVANPKDIIHFFRHREQKEKTGEE
modifications: amine-reactive AlexaFluor-647 dye on the labeled copy; the titrated copy is unlabeled
On to B1, for which the Kd turned out to be 370 ± 80 nM.
